Test results from patent US10428140B2, “Anti-EphA4 antibody” (EISAI R&D MANAGEMENT CO., LTD., priority 2015, dated 2019).

Key:
[1] = system: human Eph receptor (EphA1-A8, A10, EphB1-B4, B6); experiment: Selectivity ELISA for human Eph receptor family; assay type: binding; conditions: antibody 10 μg/mL
Text: According to the method described in Example 1, a DNA sequence encoding the signal sequence and the extracellular region of each human Eph receptor (EphA1, EphA2, EphA3, EphA4, EphA5, EphA6, EphA7, EphA8, EphA10, EphB1, EphB2, EphB3, EphB4, and EphB6) was amplified by RT-PCR using tissue-derived total RNA and cloned into a pENTR1A vector (Invitrogen/Life Technologies) having a DNA sequence encoding a human IgG1 Fc region and histidine tag. Next, the DNA sequence encoding the signal sequence and the extracellular region of each human Eph receptor, Fc, and histidine tag was transferred to a pcDNA3.1_rfcB vector through LR reaction using Gateway System (Invitrogen/Life Technologies) to construct a vector for the expression of a protein of the extracellular region of each human Eph receptor fused with the human IgG1 Fc region and the His tag (referred to as “Eph receptor extracellular region-Fc-His protein”) (this vector is referred to as “Eph receptor extracellular region-Fc-His protein expression vector”). […]
Antibody A was evaluated for its binding activity against each human Eph receptor according to the following steps.
Each well of a 96-well plate (Nunc) was coated with a donkey anti-human IgG antibody (Jackson ImmunoResearch Laboratories). […] The absorbance at 450 nm was read using a microplate reader (PerkinElmer).

[2] = system: human iPS cell-derived motor neuron / variant human SOD1 (G93A)-expressing astrocyte coculture; experiment: Motor neuron protection in in vitro ALS model derived from human iPS cells; assay type: cell-based; conditions: antibody A 10, 30, 100 nM; EphA4-Fc 3, 10, 30 nM; KYL peptide 1, 3, 10 μM; 2 days
Method: Human iPS cells were maintained and cultured according to the following steps. Human iPS cells (201B7) cryopreserved in liquid nitrogen using Stem cell banker (TAKARA) were taken out of the gas phase of liquid nitrogen and immediately suspended and thawed in 5 mL of a human iPS cell culture medium (Essential 8, Thermo Fisher Scientific) prewarmed to 37° C. The cell suspension was recovered into a 15-mL conical tube (Falcon) and centrifuged (1000 rpm, 5 min, room temperature), followed by the removal of the supernatant. The cells were suspended in a fresh medium and then disseminated to a ϕ60 mm cell culture dish (Falcon BD) coated with 0.5 μg/cm^2 Human recombinant vitronectin (Invitrogen) in advance. 10 μM Y-27632 (Wako Pure Chemical Industries) was added thereto, and the cells were maintained and cultured in a CO2 incubator (5% CO2, 37° C.). Medium replacement was performed every day, and the cells were subjected to the experiment when reaching confluency.
The culture medium of the maintained and cultured human iPS cells was aspirated, and the cells were washed with 2 mL of PBS (Wako Pure Chemical Industries). […] Then, the number of cells was counted using a counting chamber. […]

B1: antibody A: mouse anti-EphA4 monoclonal antibody, IgG1/κ; heavy chain variable region SEQ ID NO: 11, light chain variable region SEQ ID NO: 13 (antibody, listed as Mus musculus, V domains shown)
VH: QIQLVQSGPELKKPGETVKISCKASGYTFTDYSMHWVKQAPGKGLKWMGWINTETGEPTYADDFKGRFAFSLETSASTAYLQINNLKNEDTATYFCARIPLYYYGSRYWYFDVWGAGTTVTVSS
VL: DIQMTQSPASLSVSVGETVTITCRASENIYRNLAWYQQKQGKSPQLLVYAATNLADGVPSRFSGSGSGTQYSLKINSLQSEDFGSYYCQHFWGTPWTFGGGTKLEIK
[1]
  binding specificity among human Eph receptor family (in words): specifically had reaction activity only with human EphA4
[2]
  suppression of motor neuron death / motor neuron protective effect (in words): suppressed, in a concentration-dependent manner
